Target: T1, cynomolgus integrin avb8 (cynomolgus)
T1 chain 1: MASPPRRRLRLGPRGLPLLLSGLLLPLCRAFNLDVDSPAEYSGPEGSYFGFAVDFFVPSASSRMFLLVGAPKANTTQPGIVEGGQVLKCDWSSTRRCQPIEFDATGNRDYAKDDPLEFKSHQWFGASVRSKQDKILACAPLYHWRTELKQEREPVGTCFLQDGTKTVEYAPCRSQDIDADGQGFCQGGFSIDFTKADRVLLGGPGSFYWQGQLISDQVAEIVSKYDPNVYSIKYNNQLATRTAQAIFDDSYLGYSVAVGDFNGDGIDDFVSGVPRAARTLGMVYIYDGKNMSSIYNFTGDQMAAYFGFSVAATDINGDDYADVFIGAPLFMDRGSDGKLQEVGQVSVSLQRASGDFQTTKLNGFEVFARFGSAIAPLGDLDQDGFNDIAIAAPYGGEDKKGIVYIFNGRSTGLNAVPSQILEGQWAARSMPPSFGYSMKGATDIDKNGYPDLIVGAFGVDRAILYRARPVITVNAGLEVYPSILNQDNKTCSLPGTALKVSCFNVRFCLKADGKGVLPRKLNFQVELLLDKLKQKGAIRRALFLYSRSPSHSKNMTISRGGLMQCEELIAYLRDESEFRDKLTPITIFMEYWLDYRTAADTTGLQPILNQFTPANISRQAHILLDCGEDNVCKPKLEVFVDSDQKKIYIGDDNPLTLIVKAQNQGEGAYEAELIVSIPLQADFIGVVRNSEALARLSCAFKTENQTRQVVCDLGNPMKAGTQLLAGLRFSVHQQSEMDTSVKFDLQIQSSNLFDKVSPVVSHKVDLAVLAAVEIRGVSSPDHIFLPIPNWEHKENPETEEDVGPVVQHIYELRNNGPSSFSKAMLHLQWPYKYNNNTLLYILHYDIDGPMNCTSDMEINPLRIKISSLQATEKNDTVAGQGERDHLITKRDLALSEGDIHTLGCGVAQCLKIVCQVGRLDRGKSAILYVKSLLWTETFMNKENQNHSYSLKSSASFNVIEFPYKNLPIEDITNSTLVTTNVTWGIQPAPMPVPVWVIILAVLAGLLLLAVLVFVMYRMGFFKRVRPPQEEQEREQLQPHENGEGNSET
T1 chain 2: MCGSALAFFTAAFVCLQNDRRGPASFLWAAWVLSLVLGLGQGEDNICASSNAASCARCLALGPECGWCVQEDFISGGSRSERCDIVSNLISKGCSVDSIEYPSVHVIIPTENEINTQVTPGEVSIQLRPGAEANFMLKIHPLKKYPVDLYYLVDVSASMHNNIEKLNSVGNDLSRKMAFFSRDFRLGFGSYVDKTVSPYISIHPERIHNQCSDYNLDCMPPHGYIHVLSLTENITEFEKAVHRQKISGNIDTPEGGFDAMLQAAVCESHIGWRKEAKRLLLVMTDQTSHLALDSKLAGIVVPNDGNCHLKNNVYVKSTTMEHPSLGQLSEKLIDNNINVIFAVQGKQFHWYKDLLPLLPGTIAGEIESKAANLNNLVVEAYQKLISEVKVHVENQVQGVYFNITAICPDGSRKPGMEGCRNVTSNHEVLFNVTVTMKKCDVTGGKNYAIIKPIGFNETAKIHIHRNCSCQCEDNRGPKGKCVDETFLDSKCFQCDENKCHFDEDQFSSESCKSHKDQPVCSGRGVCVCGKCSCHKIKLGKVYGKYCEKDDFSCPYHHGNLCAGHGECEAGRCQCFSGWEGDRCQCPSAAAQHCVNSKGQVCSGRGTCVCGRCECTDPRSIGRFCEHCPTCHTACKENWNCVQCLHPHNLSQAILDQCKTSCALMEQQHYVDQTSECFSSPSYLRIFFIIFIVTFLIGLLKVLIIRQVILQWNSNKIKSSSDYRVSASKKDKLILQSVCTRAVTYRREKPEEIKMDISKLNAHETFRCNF
Experiment: SPR

Kd: < 0.1 nM
B1: ADWA11 2.4 Fab (antibody, V domains shown)
VH: EVQLVESGGGLVQPGGSLRLSCAASGFNIKDYYMNWVRQAPGKGLEWVGWIDPDQGNTIYEPKFQGRFTISADTSKNSAYLQMNSLRAEDTAVYYCARRLLMDYWGQGTLVTVSS
VL: DIQMTQSPSSLSASVGDRVTITCRSTKSLSHFNGNTYLFWYQQKPGKAPKRLIYYMSSLASGVPSRFSGSGSGTDFTLTISSLQPEDFATYYCQQSLEYPFTFGGGTKVEIK
